Measured values as given in patent US20170022268A1 (H LUNDBECK A S, published 2017).
Where no end group is shown, it is not given here. [ ]: non-standard residue; d: D form. pGlu = O=C1CC[C@@H](C(=O)O)N1

B1: monoclonal antibody 1G11 (antibody, V domains shown)
VH: EVKLEESGGGLVQPGGSMKLSCTASGLTLSDAWMNWVRQSPEKGLEWVAEIRSKAYKHATYYAESVKGRFTISRDDSKSCIYLQMNTLRAEDTGIYYCTRHGSWGPGTLVTVSA
VL: DILMSQSPSSMSVSLGDRVSITCRASQGISSKMGWLQQKPGKSSKGLIYHGTKLEDGVPSRFSGSGSGAEYSLTISSLESEDFGDYYCVQYAQFPYTFGGGTKLEIK
notes: Mouse hybridoma monoclonal antibody directed against murine AβpE3
B2: monoclonal antibody 2E4 (antibody, V domains shown)
VH: EVKLEESGGGLVQPGGSMKLSCTASGITLNDAWMTWVRQSPEKGLEWVGEIRNKANNHATNYAESVKGRFSISRDDSKGIVYLQMNSLRAEDTGNYYCTRHSYWGPGTLVTVSA
VL: DILMTQSPSSMSVSLGDTVSITCHASQGIRNNIGWLQEKPGKSFKGLIYHGTKLEDGIPSRFSGSGSGADYSLTISSLESEDVADYYCVQYDQFPYTFGGGTKLEIK
notes: as for B1
B3: monoclonal antibody 5C9 (antibody, V domains shown)
VH: QIQLQQSGPELVKPGAAVKISCKASGYTFTDYYLNWVKQKPGQGLEWIGWIYPGSGNVKYNEKFKGKATLTADTSSNTAHMQLSSLTSEDTAVYFCTREGLIVYWGQGTLVTVSA
VL: DVVLTQTPFTLSVTIGQPASISCKSSQSLLHSNGESYLNWLFQRPGQSPKRLIYAVSKLDSGVPDRFTGSGSGTDFTLKISRVEAEDLGVYYCVQGTHFPFTFGGGTKLEIK
notes: also called LuAb1h

Tests used:
[1] = molecular target: T1, pyroglutamated human Aβ3-11 with the addition of a C-terminal cysteine residue, pE-FRHDSGYE-C (human, not fully specified); experiment: SPR (BIAcore 3000), peptide immobilised on CM5 chip
T1 construct: The range 3-11 counts on Aβ, not on APP; also called human AβpE3; human AβpE3-11-C
T1 peptide: [pGlu]FRHDSGYEC
Description: (§1) Affinity measurements using SPR technology: Binding affinity of anti-Aβ antibodies was determined using BIAcore 3000 (Biacore, Upsula, Sweden). Human and murine pyroglutaminyl and unmodified Aβ peptides with a C-terminal Cystein were immobilized on a CM5 chip using the 2-(2-pyridinyldithio) ethaneamine hydrochloride (PDEA) coupling technology (GE healthcare).

[2] = molecular target: T2, pyroglutamated murine Aβ3-11 with the addition of a C-terminal cysteine residue, pE-FGHDSGFE-C (murine, not fully specified); experiment: as above
T2 construct: The range 3-11 counts on Aβ, not on APP; also called murine AβpE3; murine AβpE3-11-C
T2 peptide: [pGlu]FGHDSGFEC
Description: as §1

| Binder | binding result [1] | binding result [2] |
| --- | --- | --- |
| B1 | no binding |  |
| B2 | no binding |  |
| B3 |  | no binding |
